According to the supplement of paper PMC12042874:
± gives the uncertainty stated by the source.

Experiment: amyloid nucleation score (Sup35N fusion, yeast selection) (log enrichment); library NNK2; higher = more nucleation; inactive = no reads after selection
Method in brief: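 Using DiMSum, nucleation scores were taken as the log enrichment of output over input reads, centred on the mode score of non-aggregating sequences. The input and output reads came from Illumina sequencing of plasmid inserts, with sequences under 100 input reads excluded. The yeast were psi-negative, expressed Sup35N fused to peptides of 20 random codons, were induced with 100 μM copper sulfate for 24 hours, and were grown 7 days at 30°C on medium lacking adenine and uracil.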

| Substance | amyloid nucleation score |
| --- | --- |
| NSVRFSRLKRFSNCMFNHWR | 0.284 ± 0.65 |
| NTATSN | -0.22 ± 1.1 |
| NTFWLGFPYSLLQALCHALD | 0.447 ± 0.53 |
| NTLEPWMKYSMCLFDKISPT | -0.391 ± 0.49 |
| NTLITRVHHDQLPRLSDLLL | 1.28 ± 0.38 |
| NTRCQFSTIGHFAASHDRRD | 1.17 ± 0.21 |
| NTSIQQIPLMSRLGVAFVIW | -0.781 ± 0.54 |
| NTTQAV | -0.249 ± 1 |
| NTVHWSDSCRLFPHRDQQCF | -0.694 ± 0.61 |
| NTWTCAQPRVTLLAQLYELN | 3.1 ± 0.12 |
| NTYYFKALT | 0.072 ± 1.1 |
| NVAHGW | -0.322 ± 0.44 |
| NVFKGPVLHGFRDRISWVKD | inactive |
| NVGTRWSGDARNMFSSKGGK | 0.83 ± 0.31 |
| NVGYWYCLD | 8.808 ± 0.033 |
| NVHDEWKGFVSGTCGKVEKA | 0.355 ± 0.29 |
| NVHFFCWCFLNLCV | -0.558 ± 1 |
| NVLDASRNLE | 1.14 ± 0.42 |
| NVLGQNAQPPNMDFYVTMIC | 0.508 ± 0.56 |
| NVPFCIVV | 0.213 ± 0.57 |
| NVRDMCLSACTSQWYYYFAV | 0.371 ± 0.37 |
| NVVKTWPIYIMRPLWTAHSN | -0.641 ± 0.31 |
| NWDKKKGRDR | inactive |
| NWDSINFYRAVSYCDHIFYV | inactive |
| NWLGCEMPIGGSSSVSAMYL | 1.17 ± 0.21 |

| Substance | amyloid nucleation score |
| --- | --- |
| NWLQDK | 1.61 ± 0.55 |
| NWLQGVYCCGKVIGSLTSTD | 8.775 ± 0.043 |
| NYFVYNFLVV | 4.95 ± 0.099 |
| NYIMWLWQQTGWSNGWCALI | 0.312 ± 0.61 |
| NYIWFVNPYRRFSHVNHITN | -0.176 ± 1.1 |
| NYKNVVSFLVR | inactive |
| NYMRYTYHSMCVLWFTVGEC | 0.864 ± 0.41 |
| NYPSVGSDIARLLRLVTRRI | -0.313 ± 0.76 |
| NYTWSNTRLNYPLRVNATNH | -1.01 ± 1.1 |
| NYWCMVV | 5.24 ± 0.075 |
| PAITFSSYQSIANYWRGPRM | 7.899 ± 0.026 |
| PARLCAVVL | 0.066 ± 0.76 |
| PASNWIRYRMTFQDGPYVKR | 0.373 ± 0.66 |
| PCITRTARSQIVTFKRG | -0.35 ± 1.1 |
| PCKNIMVYNSLTDAWPCLYM | 0.093 ± 0.8 |
| PCLKGVITLLLKGPGPHRVN | 0.091 ± 0.42 |
| PCRRYRVLFWGGSLVSSMGK | 3.3 ± 0.07 |
| PDGAWARLSKSGAEAYLSNF | -0.299 ± 1.1 |
| PDHKLARTIYWAPCTMDWVI | -0.057 ± 0.61 |
| PDLRKDYAWLLLFLVRVRGD | 4.43 ± 0.085 |
| PDSMGKVIYYKSESCFYSRG | 2.72 ± 0.086 |
| PDWMRGSSEYWSVGPRYCNS | 0.355 ± 0.13 |
| PFFVV | -0.791 ± 1.1 |
| PFSWVASDNTYQSTSLSIVH | 0.995 ± 0.51 |
| PGFKSCIP | 0.598 ± 0.28 |

| Substance | amyloid nucleation score |
| --- | --- |
| PGHNQKERLLQLRSI | inactive |
| PGRDTVTLLHLCHFGVGSGF | 0.165 ± 1 |
| PGSNALVGLTIRCNVILKGG | 4.68 ± 0.086 |
| PGTKLLSSVNAQRDSLKKGG | -0.478 ± 0.4 |
| PGYVAWRIFFFGPVI | 0.007 ± 1.1 |
| PHHWTQWSVKMSGFRSLLRR | 1.19 ± 0.13 |
| PHPIDNKRMTTPNIADAPPR | 0.56 ± 0.74 |
| PIGLYRSMATQVNCC | 3.71 ± 0.094 |
| PIITFNTI | -0.637 ± 1.1 |
| PISWGRLFNMVPR | -0.98 ± 0.55 |
| PKNLILLSHFYSEAVCPGAR | -0.927 ± 1.1 |
| PLGSMTNDTTDRNFEVSGRG | -0.106 ± 0.31 |
| PLGTSTTSFRSAVFQGMTWL | inactive |
| PLGYGMGLRGLFGLLDSYFG | 0.19 ± 0.8 |
| PLISRYDYFVCIRILSHSDN | 0.98 ± 0.81 |
| PLLVLVNFLSGKSPQAHCSH | 3.07 ± 0.077 |
| PLQPNAIRRSMVSF | 0.894 ± 0.43 |
| PLSPFTHGLSQYIALEIDGQ | -0.254 ± 0.63 |
| PMEWKPALPKTIVADARMRG | 0.48 ± 0.3 |
| PMRKADRYSSSSET | -0.479 ± 1 |
| PNRTFLLKVGA | -1.1 ± 1.1 |
| PNSGFSGNCIKVIQHNLQG | inactive |
| PNSLYGYKIAFSLDFFVRVY | inactive |
| PNWPR | 0.512 ± 0.66 |
| PPCYALDRFLSGSLTVLSPV | -0.36 ± 0.35 |

| Substance | amyloid nucleation score |
| --- | --- |
| PPDSTWYC | 0.452 ± 0.53 |
| PPGFMYLYCGLYAQSSRSSW | 0.546 ± 0.5 |
| PPHRAYGILMMNTRRTSSIT | 0.604 ± 0.37 |
| PPLYSFVQYMRGFANNVISG | 0.227 ± 0.49 |
| PPNRVNGNW | 0.853 ± 0.57 |
| PPNVLDCFNVL | -0.501 ± 0.64 |
| PPWCLNVCDMLRRSHLAFKR | -0.213 ± 1.1 |
| PQINMGVLAGGVYHYSTCGK | 0.196 ± 0.74 |
| PQSWIVHRTIVHGSLGSCFP | -0.4 ± 0.3 |
| PRDRLSSGPLQWHGFIIGYV | 0.676 ± 0.23 |
| PRIFFYVNLFLRHWPEIKML | -2.08 ± 1.1 |
| PRLRAAG | 0.758 ± 0.26 |
| PRNRQRSNSTDCGHLITYWD | 0.205 ± 0.62 |
| PRRCSISIEFRDE | -0.718 ± 0.76 |
| PRSNCLHCFLLPLSNIVLCA | 4.66 ± 0.049 |
| PRSQYRITYDYVCCRVMYKY | 0.392 ± 0.46 |
| PRSYWRSYWAKVLDYQLIPR | 3.55 ± 0.07 |
| PSDFYWSMFEQYCHGV | 4.51 ± 0.05 |
| PSGGFTTSMVTDDIDVSARH | 0.708 ± 0.53 |
| PSIKCTLFYSVTYLFMWGRK | -0.406 ± 0.63 |
| PSLRSSCCWNFRPP | 0.175 ± 0.42 |
| PSNKYSDVPSNAQSGFAWYG | 0.56 ± 0.57 |
| PSNTIYHFIAELNEYETPRF | 0.426 ± 0.15 |
| PSPVIWPISSPGFQSLCICS | -0.38 ± 0.63 |
| PSQHSWGWARCLQDCDSMPG | 0.591 ± 0.34 |

| Substance | amyloid nucleation score |
| --- | --- |
| PSQVL | 0.992 ± 0.52 |
| PSRMCSCCPLRGSCKDMACR | 0.256 ± 0.18 |
| PSSDGIRITSDGILMSVDNG | 0.918 ± 0.58 |
| PSSKVL | 0.024 ± 0.55 |
| PSWGSLCMSQNHMHLEV | -0.087 ± 0.42 |
| PTMHVRVSG | 0.495 ± 0.28 |
| PTSFLKSIVGVIWISANLSR | 0.696 ± 0.43 |
| PVALLAIRMNIDVVN | -0.353 ± 0.49 |
| PVCGVIALDSVTLCSSGMLL | 0.334 ± 0.39 |
| PVIYSF | 7.115 ± 0.031 |
| PVNCGWQGEDRTVEILHAHG | 1.13 ± 0.28 |
| PWFMFPCRHRYRQYLWCFCA | 2.52 ± 0.068 |
| PWNLLGWLRRS | 0.108 ± 0.23 |
| PWTRWGVSFAFKAVNKCVHV | -1 ± 0.76 |
| PWYGSQGNTKSCYSFVMSLP | 0.06 ± 0.34 |
| PYIEVY | 0.926 ± 0.52 |
| PYQAIHYVNRCGFWLTASCA | 0.36 ± 0.62 |
| PYQSTCSDRSFYVCVCELHW | 0.241 ± 0.8 |
| PYSFSV | inactive |
| QCGWDFLFIVMCKFVQRRCS | 0.35 ± 0.8 |
| QCMVVQYD | -0.394 ± 0.65 |
| QCWGMERSERSIRFVTRFFR | 3.5 ± 0.1 |
| QDFCSEGCLEDVSSLY | -1.37 ± 0.49 |
| QEALLWTLNTLKKLSGRGST | -1.44 ± 0.55 |
| QEFLWWGREQLGVCCLGVGR | 2.88 ± 0.14 |

| Substance | amyloid nucleation score |
| --- | --- |
| QELIDIGTNSFVDCCS | inactive |
| QERSILGLHWYICRVAKLSF | 0.196 ± 0.64 |
| QFGYRCTTPC | 0.522 ± 0.3 |
| QFLEFHIP | -0.223 ± 0.49 |
| QFLSYCFWIGNPLVNFINAN | 5.874 ± 0.039 |
| QFRLQWGLLVQCAGDSVLVM | -0.085 ± 0.61 |
| QFSYLYLVMASRSLTAVIIV | -0.887 ± 0.3 |
| QFVHRYGDHNAGVLPSYRKS | 5.22 ± 0.066 |
| QFWHKSVSTCLWCCSVAGSW | 8.73 ± 0.071 |
| QGCLRQVQMRDRATRIGEVI | 0.47 ± 0.25 |
| QGRGLRYQH | 0.166 ± 0.76 |
| QHKDLYLW | inactive |
| QHLLLCAAM | 0.399 ± 0.74 |
| QIVAFY | inactive |
| QIYGCNWLCLQVRHPV | 8.061 ± 0.079 |
| QIYSMDMQRMNKCCCEDGEV | inactive |
| QKFVLSRPDLDRFYCSMDCM | -0.185 ± 0.63 |
| QLMDGSRSLFMALRRRFLLV | 0.691 ± 0.74 |
| QLPNPKNMISIGNYWKQRSF | -1.47 ± 1.1 |
| QLVLT | 1.14 ± 0.21 |
| QMIWKIVCING | 4.55 ± 0.097 |
| QNAMGTSVDYNVNFVYVGNL | 3.38 ± 0.089 |
| QNDLIWSSW | -1.32 ± 0.49 |
| QNGAALRLIGIWGNGGCK | -0.003 ± 1.1 |
| QNGTERGFFCSKLNRSVTLL | 0.358 ± 0.65 |

| Substance | amyloid nucleation score |
| --- | --- |
| QNHVRYQGRLPGSCLGCKYR | -0.488 ± 1 |
| QNWVCMNRVYDLKDTYEIDL | -0.526 ± 0.35 |
| QNYRNSGVKLHTRRIISCNV | -0.526 ± 0.36 |
| QPCQSNSINDIHRRAGFGPL | -0.437 ± 0.64 |
| QPGSLMGNRPKESVRASRAR | -0.104 ± 0.45 |
| QQKPVLGLCFWERAGHLSNR | inactive |
| QRYCRA | 0.94 ± 0.23 |
| QSESVVRHWGMRWR | 0.729 ± 0.29 |
| QSETN | -0.264 ± 0.29 |
| QSGLIHY | -0.894 ± 0.78 |
| QSLVIN | 4.58 ± 0.05 |
| QSVYLPLRNVIFPVVVSKCE | inactive |
| QTCCTSNEQEFVALA | 0.414 ± 0.32 |
| QTMMTTRKCSPLRLVLSQRL | -0.161 ± 1.1 |
| QVCFHDQ | -0.589 ± 0.48 |
| QVKLFYRLRPSFLCVFPFNL | inactive |
| QVLISFG | -2.41 ± 1.1 |
| QVVDGWWGNYFIV | -1.92 ± 0.78 |
| QWSAILFSMRWFVKKSEFSC | 3.48 ± 0.052 |
| QWVVLVD | -0.016 ± 0.65 |
| QYCARAR | 1.87 ± 0.4 |
| QYDSSFT | -0.165 ± 0.55 |
| QYGVLSSETLGCTVFKWYVS | 0.468 ± 0.6 |
